Data taken from patent US6620616B1, “Nucleic acids encoding nitric oxide synthase variants” (The Cleveland Clinic Foundation, priority 2000, dated 2003).

What was measured:
[1] = Ferrous-nitrosyl complex formation during aerobic steady state; format: biochemical; conditions: air-saturated buffer, 15° C., 1 mM Arg, 20 μM H4B
Description: NO down-regulates the rate of NO synthesis and associated electron flux by binding to the nNOS heme. We therefore investigated if NO binding to the heme was altered by the Trp-409 mutations during aerobic steady-state catalysis. In this study, 0.6 μM nNOS was diluted is an air-saturated 40 mM EPPS buffer, pH 7.6, containing 0.9 mM EDTA, 3 μM CaM, 200 μM DTT, 20 μM H4B, 80 μM NADPH, and 1 mM Arg; final volume 1 ml. Reactions were started by adding 1.2 mM Ca^2+ and monitored by wavelength scanning at 15° C.

[2] = NO synthesis from Arg (initial rate); format: biochemical; conditions: for NO synthesis from Arg, turn over number (kcat): 25° C.
Description: (§1) The initial rate of NO synthesis, NADPH oxidation, or cytochrome c reduction by wild type and mutants was quantitated at 25° C. as described in Abu-Soud et al. (1997) J. Biol. Chem 272: 10769-10772. H2O2-dependent nNOS oxidation of NOHA to nitrite was assayed in 96-well microplates at 30° C. The assay volume was 100 μl and contained 40 mM EPPS, pH 7.6, 250 nM nNOS or mutants, 1 mM NOHA, 1 mM DTT, 25 units/ml superoxide dismutase 0.5 mM EDTA, and 4 μM H4B. Reactions were initiated by adding 30 mM H2O2 and stopped after 10 min by adding 1300 units of catalase. Nitrite was detected at 550 nm using the Griess reagent (100 μL) and quantitated based on nitrite standards.

[3] = NO synthesis from NOHA (initial rate); format: biochemical; conditions: 25° C.
Description: as §1

[4] = NO synthesis versus O2 concentration (oxyhemoglobin assay); format: biochemical; conditions: O2 levels ranging from 0 to 230 mm O2, 25° C., FIG. 3
Description: The reaction was started by adding 0.2 mM NADPH. Rates of synthesis were quantified as follows: the initial rate of NO synthesis by nNOS was quantitated at 25° C. using oxyhemoglobin assay for NO, according to the method found in Abu-Soud and Stuehr (1993) Proc. Natl. Acad. Sci. U.S.A. 90:10769-10772. The NO mediated conversion of oxyhemoglobin to met-hemoglobin was monitored over time as an absorbence increase at 401 nm, and quantitated using the extinction coefficient of 38 mM^−1 cm^−1. Quantitation was done with a Hitachi U2000 spectrophotometer. O2 concentration measurement in each reaction was calculated based on the O2 concentration of a saturated buffer at 25° C. (approximately 0.26 mM) and the mixing ratios of this solution with an anaerobic buffer that contained no oxygen. […] The difference in the enzymatic activity of the NOS variant and wild-type NOS is most pronounced at low concentrations of O2, i.e., concentrations ranging from 0 to 50 μM.

NADPH oxidation = format: biochemical; conditions: 25° C.
Description: as §1

cytochrome c = experiment: Cytochrome c reduction; format: biochemical; conditions: 25° C.
Description: as §1

[5] = Ferric- and ferrous-NO complex formation under anaerobic conditions; format: binding; conditions: Arg and H4B present
Description: Given the above, we investigated if either mutant could form stable ferric or ferrous NO complexes with authentic NO under an anaerobic atmosphere in the presence of Arg and H4B, as occurs for wild-type nNOS. Concentrated small amounts of nNOS or mutants were placed into an anaerobic cuvette with 4 μM H4B, 1 mM Arg, and 200 μM DTT and made anaerobic by repeated cycles of evacuation and equilibration with deoxygenated argon gas. A 40 mM EPPS buffer containing 4 μM H4B, 1 mM Arg, and 200 μM DTT was separately made anaerobic, and 1 ml of this solution was transferred to the cuvette. NO gas was added to the head space and dissolved by mixing. Dithionite solution was then added in some cases.

[6] = CaM-bound, +H4B, NAME (nitro-L-arginine methyl ester)

| Substance | 6-coordinate ferrous-NO complex accumulation (absorbance buildup at 436 nm) during steady-state NO synthesis [1] | faster rate of NO synthesis from Arg compared with the wild type ([2]; +CaM) [fold] | NO synthesis from Arg, turn over number (kcat) ([2]; +CaM) | NO synthesis from Arg, turn over number (kcat) ([2]; −CaM) | NO synthesis from NOHA, turn over number (kcat) ([3]; +CaM) | NO synthesis from NOHA, turn over number (kcat) ([3]; −CaM) | rate of NO production relative to wild-type nNOS [4] | NADPH oxidation, turn over number (kcat) (NADPH oxidation; +CaM) | NADPH oxidation, turn over number (kcat) (NADPH oxidation; CaM-bound, +H4B, Arg) | NADPH oxidation, turn over number (kcat) (NADPH oxidation; [6]) | NADPH oxidation, turn over number (kcat) (NADPH oxidation; CaM-bound, +H4B, agmatine) | NADPH oxidation, turn over number (kcat) (NADPH oxidation; CaM-bound, +H4B, −Arg) | NADPH oxidation, turn over number (kcat) (NADPH oxidation; CaM-bound, −H4B, −Arg) | NADPH oxidation, turn over number (kcat) (NADPH oxidation; −CaM) | Cytochrome c reduction, turn over number (kcat) (cytochrome c; +CaM) | Cytochrome c reduction, turn over number (kcat) (cytochrome c; −CaM) | ferric NO complex formation with authentic NO [5] | ferrous-NO complex after dithionite reduction ([5]; dithionite added) |
| --- | --- | --- | --- | --- | --- | --- | --- | --- | --- | --- | --- | --- | --- | --- | --- | --- | --- | --- |
| W409F: rat nNOS variant with phenylalanine (F) at position 409 in place of tryptophan, His6-tagged, expressed in E. coli | small | 3 | 286 mol of product formed/mol of protein/min | 0 mol of product formed/mol of protein/min | 453 mol of product formed/mol of protein/min | 0 mol of product formed/mol of protein/min | faster than the wild-type nNOS protein | 445 mol of product formed/mol of protein/min | 480 + 20 min^−1 | 16 + 3 min^−1 | 180 + 10 min^−1 | 189 + 15 min^−1 | 105 + 10 min^−1 | 5.6 mol of product formed/mol of protein/min | 5000 mol of product formed/mol of protein/min | 230 mol of product formed/mol of protein/min | – | – |
| W409Y: rat nNOS variant with tyrosine (Y) at position 409 in place of tryptophan, His6-tagged, expressed in E. coli | no | 1.8 | 155 mol of product formed/mol of protein/min | 0 mol of product formed/mol of protein/min | 180 mol of product formed/mol of protein/min | 0 mol of product formed/mol of protein/min | faster than the wild-type nNOS protein | 237 mol of product formed/mol of protein/min | 250 + 20 min^−1 | 25 + 4 min^−1 | 170 + 10 min^−1 | 124 + 4 min^−1 | 74 + 8 min^−1 | 11.2 mol of product formed/mol of protein/min | 5546 mol of product formed/mol of protein/min | 280 mol of product formed/mol of protein/min | – | – |
| nNOS: wild-type rat neuronal nitric oxide synthase, His6-tagged, expressed in E. coli; non-variant comparator [reference compound] | a significant percentage accumulated as the 6-coordinate ferrous-NO complex | – | 96 mol of product formed/mol of protein/min | 0 mol of product formed/mol of protein/min | 115 mol of product formed/mol of protein/min | 0 mol of product formed/mol of protein/min | – | 170 mol of product formed/mol of protein/min | 160 + 12 min^−1 | 22 + 4 min^−1 | 250 + 20 min^−1 | 500 + 25 min^−1 | 290 + 25 min^−1 | 11.2 mol of product formed/mol of protein/min | 7000 mol of product formed/mol of protein/min | 500 mol of product formed/mol of protein/min | formed stable 6-coordinate ferric NO complexes | stable 6-coordinate ferrous-NO complex |
